# Patent publication US20230034768A1 (BIOSION, published 2023)
# Read-outs that look alike come from different tables or passages of the source.
# B1: mouse anti-RANKL monoclonal antibody D1A1 (antibody, V domains shown)
# VH: EVQLVESGGGLVKSGGSLKLSCAASGFTFRNYAMSWVRQTPEKRLEWVAGISSGGTYTYYPDTVKGRFTISRDNARNTLFLQMSSLRSEDTAMYYCARRDYGDVYEWYFDVWGTGTTVTVSS
# VL: DIVMTQSHKFMSTSVGDRVSITCKASQDVRTSIAWYQQKPGQSPNLLIYSASYRYTGVPDRFTGSGSGTDFTFTISSVQAEDLAVYYCQQHYSSPWTFGGGTKLEIK
# notes: Hybridoma-derived mouse IgG purified on Protein A; also called Mouse D1A1
# B2: mouse anti-RANKL monoclonal antibody D1E3 (antibody, V domains shown)
# VH: EVQLVESGGGLVKPGGSLKLSCAASGFTFSRYAMSWVRQTPEKRLEWVAGISSGGTYTYYPDTVKGRFTISRDSAKNILYLQMGSLRSEDSAMYHCARRDYGDVYEWYFDVWGTGTTVTVSS
# VL: DIVMTQSHKFMSASVGDRVSITCKASQGVRIAVAWYQQKPGQSPKLLIYSASYRYTGVPDRFTGSGSGTDFTFTISSVQAEDLAVYYCQQHHSSPWTFGGGTKLEIK
# notes: Hybridoma-derived mouse IgG; also called Mouse D1E3
# B3: mouse anti-RANKL monoclonal antibody B4H5 (antibody, V domains shown)
# VH: DVQLQESGPDLVKPSQSLSLTCTVTGYSISSGYSWHWIRQFPGNKLEWMDYIHFSGSTNYNPSLKSRISITRDTSKNQFFLQFISVTTEDTATYYCARSGPSTYVMDYWGQGTSVTVSS
# VL: DIVMTQSHRFMSTSVGDRVSITCKASQDVGAAVGWYQQKPGQSPKLLIYWASIRDTGVPDRFTGSGSGTDFTLTISNVQSEDLADYFCQHYNSYPLTFGGGTKLEIK
# notes: Hybridoma-derived mouse IgG
# B4: mouse anti-RANKL monoclonal antibody B1A8 (antibody, V domains shown)
# VH: EVQLVESGGDLVKPGGSLKLSCAASGFTFSRYGMSWVRQTPDKRLEWVASISSGGTYTSYPDSVQGRFTITRDSAKNTLYLQMSSLKSEDTAMYYCARRNFITSATDCYFDVWGAGTTVTVSS
# VL: DTVLTQSPATLSVTPGASVSLSCRASQSISNNLHWYQQKSHESPRLLIIYASQSISGIPSRFSGSGSGTDFTLSINSVETEDFGVYFCQQSNSWPFTFGGGTKLEIK
# notes: Hybridoma-derived mouse IgG; also called Mouse B1A8
# Key:
# [1] = molecular target: T1, Recombinant human RANKL-his protein (R&D, Cat #6449-TEC-010) (human, UniProt O14788 140-317, limits assumed); assay: cell-based or functional assay
# T1 sequence (looked up): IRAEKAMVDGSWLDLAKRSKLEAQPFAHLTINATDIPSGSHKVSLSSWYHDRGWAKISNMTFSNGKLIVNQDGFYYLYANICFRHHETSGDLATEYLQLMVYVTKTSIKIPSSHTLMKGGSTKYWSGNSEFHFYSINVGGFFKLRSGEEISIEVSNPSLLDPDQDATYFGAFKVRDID
# [2] = molecular target: T1, Recombinant human RANKL-his protein …; assay: cell-based or functional assay; remark: listed apart in the source
# [3] = molecular target: T2, human RANKL-his protein (prepared in-house with SEQ ID NO: 43) (human, UniProt O14788 136-317); assay: Octet BLI, antibody captured, human RANKL-his in solution (same value as Table 2)
# T2 construct: also called recombinant human RANKL-his
# T2 chain: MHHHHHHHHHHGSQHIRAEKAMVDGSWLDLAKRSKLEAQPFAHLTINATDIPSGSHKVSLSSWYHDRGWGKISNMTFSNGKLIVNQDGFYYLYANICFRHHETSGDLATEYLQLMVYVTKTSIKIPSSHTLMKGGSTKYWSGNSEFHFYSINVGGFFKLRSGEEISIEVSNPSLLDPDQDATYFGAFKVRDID
# Description: (§1) Briefly, AHC/AMC biosensors (anti-human/anti-mouse IgG Fc capture, ForteBio) were presoaked with 10 mM glycine (pH 1.5) for 3 seconds, and then dipped in a well with running buffer (0.5% w/v BSA in PBST) for 3 seconds, the soaking and dipping steps were repeated for three times. […] A new baseline was run for 180 seconds in another well with HBS-EP⁺. […] Finally, sensors were presoaked with 10 mM glycine (pH 1.5) for 3 seconds, and then dipped in a well with running buffer for 3 seconds, the soaking and dipping steps repeated for three times. The association and dissociation curves were fit to a 1:1 Langmuir binding model using Octet evaluation software.
# [4] = molecular target: T3, biotin-labeled human RANKL-Fc protein (prepared in house, SEQ ID NO.: 40) (human, biotin-labeled (sites not given)); assay: capture ELISA: captured antibody, biotin-labeled human RANKL-Fc, OD(450-630)
# T3 construct: also called RANKL-Fc-biotin
# Description: (§2) Plates were washed once with wash buffer (PBS+0.05% v/v Tween-20, PBST) and then blocked with 200 μl/well blocking buffer (5% w/v non-fatty milk in PBST) for 2 hours at 37° C. […] After a final wash, plates were incubated with 100 μl/well ELISA substrate TMB (Innoreagents, Cat #TMB-S-002) at room temperature. The reaction was stopped in 3-10 minutes with 50 μl/well 1M H₂SO₄, and the absorbance of each well was read on a microplate reader using dual wavelengths mode with 450 nm for TMB and 630 nm as the reference wavelength. The OD (450-630) values were plotted against antibody concentration. Data were analyzed using Graphpad Prism software and EC₅₀ values were reported.
# For the capture ELISA, 96-well micro plates were coated with 2 μg/ml goat anti-human IgG (AffiniPure Goat Anti-Human IgG, F(ab′)₂ fragment specific, Jackson Immunoresearch, Cat #109-005-097) instead of AffiniPure Goat Anti-Mouse IgG, Fcγ fragment specific, 100 μl/well.
# [5] = molecular target: T3, biotin-labeled human RANKL-Fc protein …; assay: as above; remark: listed apart in the source
# Description: as §2
# [6] = molecular target: T3, biotin-labeled human RANKL-Fc protein …; assay: as above; remark: listed apart in the source
# Description: as §2
# Cell supernatants were harvested after six days in shaking flasks, spun down to pellet cells, and then chimeric antibodies were purified from cell supernatants as described above. The purified antibodies were tested in the capture ELISA, competitive ELISA assay and Octet affinity test following the protocols in the foregoing Examples.
# [7] = molecular target: T2, human RANKL-his protein (prepared …); assay: Octet BLI, antibody captured on AHC/AMC sensor, human RANKL-his in solution, 1:1 fit
# Description: as §1
# [8] = molecular target: T3, biotin-labeled human RANKL-Fc protein …; assay: competitive ELISA: antibody blocks biotin-labeled human RANKL-Fc binding to coated human RANK-Fc
# Description: (§3) Briefly, human RANK-Fc proteins (prepared in house, SEQ ID NO.: 41) were coated on 96-well micro plates at 2.0 μg/mL in PBS, 100 μl/well, and incubated overnight at 4° C. The next day, plates were washed with wash buffer (PBS+0.05% w/v Tween-20, PBST), and blocked with 5% w/v non-fatty milk in PBST, 200 μl/well, for 2 hours at 37° C.
# (§4) Plates were washed 4 times using wash buffer, and added and incubated with 100 μl/well of streptavidin conjugated HRP (1:10000 dilution in PBST buffer, Jackson ImmunoResearch Laboratories, Inc., Cat #016-030-084) for 40 minutes at 37° C. Plates were washed again using wash buffer. Finally, TMB was added and the reaction was stopped using 1M H₂SO₄, and the absorbance of each well was read on a microplate reader using dual wavelengths mode with 450 nm for TMB and 630 nm as the reference wavelength. The OD (450-630) values were plotted against antibody concentration. Data were analyzed using Graphpad Prism software and IC₅₀ values were reported.
# [9] = molecular target: T3, biotin-labeled human RANKL-Fc protein …; assay: as above; remark: listed apart in the source
# Description: as §3, §4
# [10] = molecular target: T3, biotin-labeled human RANKL-Fc protein …; assay: competitive ELISA: antibody blocks biotin-labeled human RANKL-Fc binding to coated benchmark denosumab
# Description: The next day, plates were washed with wash buffer, and blocked with 5% w/v non-fatty milk in PBST, 200 μl/well, for 2 hours at 37° C. […] After incubation at 37° C. for 40 minutes, plates were washed 4 times using wash buffer. Then the plates were added and incubated with 100 μl Peroxidase Streptavidin (1:5000 dilution in PBST buffer, Jackson Immunoresearch, Cat #016-030-084) for 40 minutes at 37° C. Plates were washed again using wash buffer. Finally, TMB was added and the reaction was stopped using 1M H₂SO₄. The absorbance of each well was read on a microplate reader using dual wavelengths mode with 450 nm for TMB and 630 nm as the reference wavelength, and the OD (450-630) values were plotted against antibody concentration. Data were analyzed using Graphpad Prism software and IC₅₀ values were reported.
# [11] = molecular target: T3, biotin-labeled human RANKL-Fc protein …; assay: as above; remark: listed apart in the source
# [12] = molecular target: T1, Recombinant human RANKL-his protein …; assay: cell-based or functional assay; remark: listed apart in the source
# [13] = molecular target: T1, Recombinant human RANKL-his protein …; assay: cell-based or functional assay; remark: listed apart in the source
# [14] = molecular target: T1, Recombinant human RANKL-his protein …; assay: cell-based or functional assay; remark: listed apart in the source
binder,measurement,setting,value
B1,"IC50, RANKL-induced osteoclast differentiation of RAW264.7 cells (pNPP, OD405)",[1],0.839 nM
same,"IC50, RANKL-induced osteoclast differentiation of RAW264.7 cells (pNPP, OD405)",[2],3.41 nM
same,Kd,[3],71.8 pM
same,EC50,[4],632 pM
same,EC50,[5],82.6 pM
same,EC50,[6],1110 pM
same,Kd,[7],71.8 pM
same,koff,[7],7.9e-05 s⁻¹
same,kon,[7],1.1e+06 M⁻¹ s⁻¹
same,IC50,[8],414 pM
same,IC50,[9],80.2 pM
same,IC50,[10],391 pM
same,IC50,[11],1280 pM
B2,"IC50, RANKL-induced osteoclast differentiation of RAW264.7 cells (pNPP, OD405)",[12],0.998 nM
same,EC50,[5],46.4 pM
same,EC50,[6],246 pM
same,IC50,[9],36.5 pM
same,IC50,[10],164 pM
B3,"IC50, RANKL-induced osteoclast differentiation of RAW264.7 cells (pNPP, OD405)",[13],1.31 nM
same,EC50,[5],583 pM
same,IC50,[9],2100 pM
B4,"IC50, RANKL-induced osteoclast differentiation of RAW264.7 cells (pNPP, OD405)",[14],0.967 nM
same,Kd,[3],386 pM
same,EC50,[5],396 pM
same,EC50,[6],493 pM
same,Kd,[7],386 pM
same,koff,[7],0.000236 s⁻¹
same,kon,[7],611000 M⁻¹ s⁻¹
same,IC50,[9],260 pM
same,IC50,[10],498 pM
